Measurements reported in the supplement of paper PMC12636428.

Tested on: Saccharomyces cerevisiae
Test: transcriptional activation domain activity (GFP:mCherry ratio, weighted mean of sorted bins, harmonized to initial dataset scale) (arbitrary fluorescence ratio units); higher = stronger transcriptional activation
Conditions: beta-estradiol 1 µM; induction time 4 h
Outline: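 Barcoded tiles were sequenced after cells were sorted into 8 bins by GFP:mCherry ratio. Before sorting, cultures had been diluted 1:5 into SC with 1 uM beta-estradiol and held for 4 hours at 30 °C. The tiles were fused to an estradiol-inducible synthetic transcription factor and integrated at URA3 in yeast diploids carrying a GFP reporter. Activation activity is the read-weighted mean of bin median fluorescence, averaged over barcodes and linearly mapped onto the initial dataset scale, and tiles under 50 reads were left out.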

| Sequence | transcriptional activation domain activity |
| --- | --- |
| AYTSTMFLQWHNHMVEFYHLRCMLGATLRNLDNENPGASLPVQLWLLFAWHML | 42100 |
| NIAQNMNQFRRQQVVYSPDTRKYSLLIREGRVGYPGVACMEIESTDPSLVVDK | 35000 |
| TEQEAIQKKRKKRKIREDNGISTVLFALEEVCAIILHRMQHRNGVPHVTTLVF | 52100 |
| SHRKGIERKKRLREEERRREAKENGIVLEREKRADKGKERGRRDRGVDAPGVG | 26800 |
| MILVQLYIYHHFLNYRCLLHVILFRLKLILPSSSLIFVLGSVESSGNHGTSYD | 49200 |
| IPSSQSRDIANDYDRGSTDNNLVTTTSTSSIFHDEDLTFFDRIPLNSNNNYYF | 102000 |
| PFSFSNTDLTALFTHPEGPNCTNTNNGNVDVCNRASTDATDANIENLSFLNMA | 116000 |
| PSHEYNKTLSALLILLESSAERCFKDLTLLRAAGVTLLGRLFLVFPVFFNPRH | 57600 |
| MSFVDLHGIWGFFLPFIFSVINWYLNYVLILTLLFFLCHVRIWVLYLVNIYRE | 55000 |
| ADCAVIGVVSEEEATELPRAYVVHAKGIPPSEHEAFGVSVQEWIKSRVARHKQ | 53600 |
| EGAQDCGESESEGANESEEESEEENVFVVGKILDKRTNGKRKQVEYLVRCESQ | 39600 |
| SGQSVVWEAQKLVHKGFLIDAHVVVVFYVMGCFFIYVLARLRCSNPKLIVMQI | 62800 |
| PSGGLFGNNNASTTTGGIGLFGNNNAAASTGGGLFGKPAASTTTATTGGLFGA | 17400 |
| MFVGGWVMCLLFSKYSIYHLLAICALLFLLEYAFFFLLGIIHLLLLPTFFPFF | 37800 |
| ELLRVLNKAHIYLMCLYLFSGLDAHMGILRDFKLIDSHYRLSLHTLICVLVSW | 71000 |
| AYFAQDSEEELMSPTQSITSNLASEENTRCTTKDLMGTVSIFMLPMVEECYNI | 75100 |
| RRTSSTSSPSRSSSGTRARARSRSSRSTRSAAACSPSTRRAPRPTARPSSRPS | 27400 |
| AHSKKKTCDVCKYPYSFTKVYAQDMPARLPVFLLLRRLAQQGALAMLFAIRAV | 73300 |
| KPDLYLDILKIIAYSLDDVKFRACQVLFHYYFVSLGHVVVAEALPKLGVTVEI | 36400 |
| MLYLYPLYLGYYLFLFLSISRLEKFLHIGSLITCLPRLVSLEIRLTLCLYYHL | 80100 |
| ALSSASSALSPLSGDPITTTETNKSYPLDSEQSLLEPDKTEEDAINQSKESNM | 15300 |

| Sequence | transcriptional activation domain activity |
| --- | --- |
| YVILVAVSIFTTTYVMLTSLPVLFQQCPFQTPLSSIIWYLGHFLVIAFLSLFS | 62600 |
| VSPQIYYGSRLLGSGGLGLYFLRLPSLPCRTVVEILNTFLFFVMISYLQILLY | 46400 |
| GVLALSPCDDTTLKATMGVIEELLIYLYFAGQMRELFYWACRVVNLSVHHGHA | 69100 |
| RSRRAHPRTTSSRASPSCARSSRAPPRATSSSASTTSSTGTRSRTTTPSTSPR | 18000 |
| PEPVSEEPKAESSRTATAPPSLARRAASYFVSSFRGRTLHGTKIDVPDGYTGL | 49000 |
| LLIFYFLFSCICIHFQQHLGLPLYLFNQDWYYAWQALAKQYFGLLLITMTKWW | 53400 |
| MRWNRIIIGSHVSVLWMIGYVFTLLLTLVPSPLLEFRYFILPFIFFCIHLPPP | 48100 |
| FAHIQPGLNVPIRAIMLCYLFNVAFGLLYLGPSVAFGAYISSCTILLNVSYAF | 57100 |
| QASPEAAKAEGEKASPEAAKAEGEAQPAEGQKEGEAAKAEGEAAAAEAGAGAG | 27600 |
| PQYLHLGYLGHHIAIDPIPHPVGTVYLPLPPDTFPTWCTVTACGWILLPLFPL | 29000 |
| MCCLLVVLVALSGVGDFFFFSLLLLLLLLERGGVFFLFWLFFFYLFILFFHRG | 57000 |
| SSIVYLHPPLLHCLFLFPLLLLRLLAILAFSFLYLINLVLGTLGSCFSFFFRD | 34600 |
| PLIPHVLPSLFPCPLFLPLFPPSPLLSPFPPSLCFPLPPFFLFPPLPLFPPFL | 25600 |
| PMSDQHKSQLLPITSVRLRLKLIVHWIHGFKTQWWFRVFFFQKYLRSILFDPF | 37700 |
| MIPSSAPLNFFLPFPFQFWFFFDFFFLTVEQPFFLCVVFFLLAFYVMLLYFFI | 17900 |
| EEPKAEEAKAEEAAKEEPKAEESKAEEPKAEEPKAEEPKAEEEPKAEEAAKEE | 7200 |
| KWKEKRSRNDEADGERGAERKPRKRSRSPRRRKEPEAAPERKQQEKPASAAPA | 45600 |
| APIILGFSCGVCIHHLLACCIFVMIFIIRIFDPVYIPSMVLLFLCSCLSDRHG | 69700 |
| MPLMIIFRFTIFIFILFQFLSFPSFGRGVFLSFIFFFIIFFSFHDQLFLILFF | 57000 |
| FMVLFFITLFSFLVLIPFPWSFVSRYVYSSMFMFCIFFSAFLRFHLLLLSFCR | 54900 |
| LIVGGGATGAGTALDAASRGLKVALVERDDFSAGTSSKSTKLVHGGVRYLQKA | 51800 |

| Sequence | transcriptional activation domain activity |
| --- | --- |
| WLSDENDGASHINVNKDSSSVLSASSSTWFEPLENIISSASSSSIGSPIEDQF | 60800 |
| LEHVVLLLYCISAVVLQTRYGSVPIGWIEERPITIGFTMAFSGALRDCLMYAA | 56400 |
| DVVDHSGDLFIRCNEIFGRQCIRNYIPSDPIWLIPLLGLLHRRLMYKVRLIYP | 71700 |
| RIFGLQSPQLVYVESMARVRKLSLSGKILRLLVDRFFVQWEALADGKTGSRWW | 61100 |
| SSSSASSSSASARGRKTQAARSTKKRKRRDAVSSANKDEDNDSDASNDEDEDE | 27500 |
| RTMGKQDPYCAMRLGKEAKKTNTDRRGGQTPRWDQELRFTVHDSPDYYKLKCS | 44300 |
| WLIKPEQNNGTWVADVLWPKLNLDLQWIASHWNQSSWDLWWPPVWGVLTGLPL | 67700 |
| AAEDGKKGDKAEVGKRGDKAEVKKVKKVDGEEAGGEKVVVEKKAGAEQKAVKA | 17500 |
| EGEGAADPAAGAGAGAEEDGEEEEDEGAADPAAGAGAGDEEGEGAAEEGAAES | 17600 |
| RSSSGKDRDRERDGGRDRNGKSSSSSRRREKERDEDSGDERRKSSSSSRRRRD | 44400 |
| SGLVIIFFMITRYFTATAEHLDHLSRCKVHNVPPYSYVFWICILGLELLLCSL | 48600 |
| RIILINPLICGATLMLVFAAIGGGWRNVAIEIFVDHGYIRLLFILCTIPQIWL | 56800 |
| MVLLSRLIFVAVILSLTGCRSQLESRCMVFGYRRVLVVVVRAISSCAALLRCA | 71100 |
| GGERREREEGTERREKEEAGRRRRESGRGQEGKKRGEGGGGRKKRGRDGGGPG | 38500 |
| PAPKRRGRPSKERVEEQQASDDETAQSSPKRRGRLPRQAASASASASAPVAAK | 44100 |
| GESKEERRSKKDKKRKREAEGVPAEEEASEVQDKKKKKSKNASAMEVDSATPT | 30900 |
| VFLKVYLLNPLHMTRFADLLYQGAILNRIFQPYESHLQYLLQWMCDYNLYGCA | 71200 |
| SLQLLYFMPVRYYTYHKRGYHYFLADLCYFVNVLLLLSIWIFPNSRRLMISTY | 65100 |
| YLIRLILVILLMEFMLHYIYVQALCKSKNFENYTPYQLLMISFFSLKFIWLKL | 58900 |
| MILMIFTYLLLTIPVVVGLIVASLLHFNFIHLNVLYACSLTSLQLINPCMVLF | 50000 |
| RMIGLPILLWLGTLTCQIGLLVLLRSVVFGQTNSGNVLPWGLGFWALTISTNI | 71800 |

| Sequence | transcriptional activation domain activity |
| --- | --- |
| MARAKPTRIVESDEDDSDSGQLSSAPAKRKAGSEDANPAAKRARTASAKQKQL | 63000 |
| MSPPTLREVNVSLPRKFDTPDEPWHRYVTIDLLHYVLGYTLFHPFVSCVLVLC | 35200 |
| SDSEEEDDAEKEDEEEEQRPKKTVKVEEVVKKAFGADGATVWVGQLSYEATSD | 32500 |
| LIRIKDFTPNEVAAVVTYYSCRTNGMIPLTGRKWLGRIICRCLPLFDMLLFYR | 37500 |
| NNNYNNVSGKNNNNNNITNNSNNNHNNNNNDNNNNNNNNNNNNNNNNNSGNSS | 49500 |
| KKNRHGKFAYSDRYNLSEYIIEQLSEYDDIDLVKPWHRKLMLLHPFVILWVFF | 60600 |
| MYLPKPGWLHVAGWLFILSLYLSIYIISYLISSYICNLCSFFCYLLLACILSF | 49600 |
| DKDEDAGAVEGEGGVVNANGKKTSGDEAGGERKKKQKQKEREKGGEDGAGKKG | 47700 |
| SVTSTEELEITVETLRELAAHPAVIKGKQCRELRGAVHEFRQACTTGVNAAGT | 53600 |
| IPSHQFAFGRFMALSSTLGCKFFFSSFNSFFYIFFITLFFSLLLLPFFKNLFF | 39300 |
| VKKAAEDGEDEAEEKPAPKAKRGRKKAELDEDDEEEAQPAKKKAKKAAPKAAA | 21400 |
| MAIYEAASTPGSSAGSHADKPYHSKRPHRKSRKGCRTCKARKVKCDEVRPSCT | 27900 |
| MIGVCWVGGGIGVWCFCELTSSSFYPIDLVDFFFSFFCFLNFLLAFDFGLLLA | 57000 |
| YDILKCVLPCIVQLLPRNSPLVHCIRAYQCYRIMIGLQCMTERRLKHLQELIK | 44800 |
| LLVANLTILDTFGLEESAIRIWNVCKPLGHLGQNALLILMLRLKDTMLIPWPL | 72200 |
| LFALAMLLLFCFIGLLVSGLHFGHRVYSDDCLGQSWIMFSSILGFLYIGLHVQ | 32600 |
| MMLVQSIPVSRDVILGVLLRLLAPTVFLSSVVLALLLVSTLCKIPKQGRLRAW | 64600 |
| YIAPCGSWTPYMNLMLGGTVCIFIGFDVFSPFSYRGFITNYFGLFWFCIMFIF | 53600 |
| MTWFGILPPFSWPWIYPRSFGMCGNLSTTLFLHVLIALFFFFCLFFHLCLLWL | 50200 |
| FWRYRQNQYAYILSYIVGSETSEERISVMRKNGTYHPAPYQFVYLRVRIANLS | 38700 |
